Laboratory results: patent US20250052768A1 (UNIVERSIT T HEIDELBERG, published 2025)

What was measured:
[1] = biological target: T1, DLL1 antigen (recombinant DLL1 protein) (human, UniProt O00548 18-540, limits assumed); experiment: sandwich ELISA, capture AbD33905, detection AbD33906-HRP, DLL1 2 ug/ml
T1 construct: also called Delta-like 1
T1 sequence (looked up): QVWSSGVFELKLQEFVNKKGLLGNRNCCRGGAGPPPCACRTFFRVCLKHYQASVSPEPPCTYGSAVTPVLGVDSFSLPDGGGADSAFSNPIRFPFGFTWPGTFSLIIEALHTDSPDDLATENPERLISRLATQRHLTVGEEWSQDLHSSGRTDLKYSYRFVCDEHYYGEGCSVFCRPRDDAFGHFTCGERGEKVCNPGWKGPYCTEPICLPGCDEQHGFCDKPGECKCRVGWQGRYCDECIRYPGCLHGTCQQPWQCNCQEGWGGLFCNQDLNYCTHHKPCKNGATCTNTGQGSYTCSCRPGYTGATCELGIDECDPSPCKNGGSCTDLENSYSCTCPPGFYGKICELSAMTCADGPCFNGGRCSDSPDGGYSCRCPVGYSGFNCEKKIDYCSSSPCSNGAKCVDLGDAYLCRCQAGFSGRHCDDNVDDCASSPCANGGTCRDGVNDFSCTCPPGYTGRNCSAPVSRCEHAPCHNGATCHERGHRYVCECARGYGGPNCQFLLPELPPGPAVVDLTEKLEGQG
Method: (§1) As control coating a-Fd (Bio-Rad antibodies, STAR126) at 5 μg/ml in PBS was used. Per well a volume of 20 μl coating solution was used. The Polystyrene ELISA plates were then incubated overnight at 4° C. with a closed lid. […] Subsequently, blocking of non-specific binding sites was performed with 100 μl per well of PBST containing 5% (w/v) BSA (Sigma-Aldrich, A7906-100). This blocking step was conducted at RT for 1-2 h. After removal of the blocking solution, five washes with PBST were performed. Thereafter, 2 μg/ml DLL1 antigen in PBST were added or PBST only (20 μl per well, triplicates were prepared). Incubation with the DLL1 antigen solution or PBST was performed at RT for 1 h. Next, the DLL1 antigen solution or PBST were removed and five washes with PBST were performed. […] After removal of this solution, ten washes with PBST were performed. […] For detection in the ELISA reader (Tecan Infinite M1000Pro Reader, Tecan Austria GmbH) excitation was performed at 320±25 nm and emission was detected at 430±35 nm.

[2] = biological target: T1, DLL1 antigen (recombinant DLL1 protein); experiment: sandwich ELISA, capture AbD33905, detection AbD33905-HRP, DLL1 2 ug/ml
Method: as §1

N1-CD33-His6 = experiment: ELISA on antigen coated at 5 ug/ml, anti-Strep-HRP secondary antibody
Method: (§2) The binding specificity of AbD33905 in form of a bivalent Fab fragment fused to alkaline phosphatase followed by a FLAG®-tag and Twin-Strep®-tag was tested in the following ELISA:
(§3) Per well a volume of 20 μl coating solution was used. The Polystyrene ELISA plates were then incubated overnight at 4° C. with a closed lid. […] Subsequently, blocking of non-specific binding sites was performed with 100 μl per well of PBST containing 5% (w/v) non-fat dry milk. This blocking step was conducted at RT for 1-2 h. After removal of the blocking solution, five washes with PBST were performed. Thereafter, AbD33905 in form of a bivalent Fab fragment fused to alkaline phosphatase followed by a FLAG®-tag and Twin-Strep®-tag in PBST was added (20 μl per well). Incubation with this AbD33905 Fab fragment was performed at RT for 1 h. Next, the AbD33905 Fab fragment containing solution was removed and five washes with PBST were performed. Thereafter 20 μl/well of 2 μg/ml anti-Strep-HRP secondary antibody (Bio-Rad antibodies, MCA2489P, 1:5000) in HISPEC assay diluent (Bio-Rad Antibodies, BUF049) were added and incubated at RT for 1 h. After removal of this solution, ten washes with PBST were performed. […] For detection in the ELISA reader (Tecan Infinite M1000Pro Reader, Tecan Austria GmbH) excitation was performed at 320±25 nm and emission was detected at 430±35 nm.

GST = experiment: as above
GST, sequence (P08515 2-218): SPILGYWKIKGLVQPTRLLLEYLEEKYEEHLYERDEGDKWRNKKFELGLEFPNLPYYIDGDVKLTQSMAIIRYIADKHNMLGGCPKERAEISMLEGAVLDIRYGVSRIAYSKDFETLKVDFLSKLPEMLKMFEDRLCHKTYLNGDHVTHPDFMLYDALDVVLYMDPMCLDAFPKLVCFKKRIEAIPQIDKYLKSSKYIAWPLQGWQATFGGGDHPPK
Method: as §2, §3

[3] = biological target: bovine serum albumin (BSA) (bovine, UniProt P02769 25-607); experiment: as above
bovine serum albumin (BSA), sequence (P02769 25-607 limits assumed): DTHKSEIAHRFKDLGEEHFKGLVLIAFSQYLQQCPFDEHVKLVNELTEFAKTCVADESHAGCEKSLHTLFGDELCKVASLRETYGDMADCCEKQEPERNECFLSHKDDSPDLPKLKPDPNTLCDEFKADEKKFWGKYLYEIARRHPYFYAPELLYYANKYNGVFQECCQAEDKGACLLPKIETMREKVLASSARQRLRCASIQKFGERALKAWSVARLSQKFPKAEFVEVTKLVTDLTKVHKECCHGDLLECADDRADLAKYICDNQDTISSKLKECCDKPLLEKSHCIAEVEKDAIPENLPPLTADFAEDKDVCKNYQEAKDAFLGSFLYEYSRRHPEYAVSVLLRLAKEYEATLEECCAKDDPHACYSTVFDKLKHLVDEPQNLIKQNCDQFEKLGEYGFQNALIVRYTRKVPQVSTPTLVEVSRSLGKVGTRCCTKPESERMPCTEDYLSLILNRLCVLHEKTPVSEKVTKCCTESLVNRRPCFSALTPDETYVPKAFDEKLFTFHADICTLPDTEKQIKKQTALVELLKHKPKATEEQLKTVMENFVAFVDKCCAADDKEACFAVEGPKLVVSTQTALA
Method: as §2, §3

[4] = biological target: T1, DLL1 antigen (recombinant DLL1 protein); experiment: as above
Method: as §2, §3

[5] = biological target: T1, DLL1 antigen (recombinant DLL1 protein); experiment: sandwich ELISA, capture AbD33906, detection AbD33906-HRP, DLL1 2 ug/ml
Method: as §1

[6] = biological target: T1, DLL1 antigen (recombinant DLL1 protein); experiment: sandwich ELISA, capture AbD33906, detection AbD33905-HRP, DLL1 2 ug/ml
Method: as §1

B1: AbD33905 (Fab fragment, monovalent) (Fab, V domains shown)
VH: EVQLLESGGGLVQPGGSLRLSCAASGFTFSSYAMHWVRQAPGKGLEWVSFISSGGSTTYYADSVKGRFTISRDNSKNTLYLQMNSLRAEDTAVYYCARFRSGYFDYWGQGTLVTVSS
VL: DIVMTQSPLSLPVTPGEPASISCRSSQSLVHSNGADYLNWYLQKPGQSPQLLIYKGSNRDSGVPDRFSGSGSGTDFTLKISRVEAEDVGVYYCQQGYDFPPFTFGQGTKVEIKR
notes: Monovalent Fab; also called Ab33905; monovalent AbD33905
**Q.** Which results are given for B1?
**A.** emission value DLL1 antigen/emission value PBST [1]: 66 ratio; emission value DLL1 antigen/emission value PBST [2]: 8 ratio

B2: AbD33905 in form of a bivalent Fab fragment fused to alkaline phosphatase followed by a FLAG-tag and Twin-Strep-tag (Fab, V domains shown)
VH: EVQLLESGGGLVQPGGSLRLSCAASGFTFSSYAMHWVRQAPGKGLEWVSFISSGGSTTYYADSVKGRFTISRDNSKNTLYLQMNSLRAEDTAVYYCARFRSGYFDYWGQGTLVTVSS
VL: DIVMTQSPLSLPVTPGEPASISCRSSQSLVHSNGADYLNWYLQKPGQSPQLLIYKGSNRDSGVPDRFSGSGSGTDFTLKISRVEAEDVGVYYCQQGYDFPPFTFGQGTKVEIKR
notes: it is put on the heavy chain here; also called AbD33905 bivalent Fab fragment; not shown: alkaline phosphatase, then FLAG-tag and Twin-Strep-tag
**Q.** Which results are given for B2?
**A.** Emission data (N1-CD33-His6): 46 arbitrary units; Emission data (GST): 70 arbitrary units; Emission data [3]: 71 arbitrary units; Emission data [4]: 15500 arbitrary units

B3: AbD33906 (Fab fragment, monovalent) (Fab, V domains shown)
VH: QVQLVQSGAEVKKPGSSVKVSCKASGGTFSSYAISWVRQAPGQGLEWMGGIIPQFGIANYAQKFQGRVTITADESTSTAYMELSSLRSEDTAVYYCAREGYSDYSAFDYWGQGTLVTVSS
VL: DIALTQPASVSGSPGQSITISCTGTSSDVGTYNYVNWYQQHPGKAPKVMIYRVSNRPSGVSNRFSGSKSGNTASLTISGLQAEDEADYYCSSWDEHSYVFGGGTKLTVLG
notes: also called AbD33906 Fab fragments
**Q.** With B3 as the binder, how does the “emission value DLL1 antigen/emission value PBST” value [5] read?
**A.** Its value is 7 ratio.

**Q.** And the “emission value DLL1 antigen/emission value PBST” value [6]?
**A.** The value was 132 ratio.
